Reference: patent publication US20170240628A1 (CELLMID, published 2017)
Where a chain is given by its changes, count along the chain named. Blank lines part the entries; values can stand above or below the binder they belong to.

Legend:
[1] = molecular target: T1, recombinant murine midkine (muMK) (murine, UniProt P12025 23-140); assay: ELISA on plate-coated muMK, antibody titrated up to 3 µg/ml, Abs 450nm on the sheet's axis [continued), panel IP14 Hv3 Murine Midkine]
T1 construct: also called murine MK; Murine MK
T1 sequence (looked up): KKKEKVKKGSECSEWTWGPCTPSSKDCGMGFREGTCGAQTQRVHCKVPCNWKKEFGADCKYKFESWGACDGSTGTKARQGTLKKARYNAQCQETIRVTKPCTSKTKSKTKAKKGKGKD
Method: The binding specificity and affinity of the humanised anti-MK antibodies to recombinant human MK (huMK) and murine MK (muMK) was assessed by ELISA. ELISA plates (Nunc Immuno MaxiSorp 96 well flat-bottom were coated with 100 uL of 2 ug/mL of either huMK or muMK in 2% BSA/PBS (overnight at room temperature). After washing, blocking (1 h at 37° C.), and washing again, the humanised anti-MK and chimeric antibodies described in Example 1 were analysed for binding to huMK or muMK at concentrations ranging between 3 μg/ml and 0.00004 μg/ml in 2% BSA/PBS (1 h at 37° C.). After washing, the binding of antibody was detected with goat anti-mouse IgG (Fab specific)-HRP conjugate (Sigma, Cat. No. A9917) and SigmaFast OPD substrate (Sigma, Cat. No. P9187). […] Binding affinity data for the humanised anti-MK antibodies to huMK and muMK are presented in Table 6 and Table 7 respectively, and in FIG. 3.

[2] = molecular target: T2, recombinant human midkine (huMK) (human, UniProt P21741 21-143); assay: ELISA, plate coated with huMK
T2 construct: also called human MK; Human MK
T2 sequence (looked up): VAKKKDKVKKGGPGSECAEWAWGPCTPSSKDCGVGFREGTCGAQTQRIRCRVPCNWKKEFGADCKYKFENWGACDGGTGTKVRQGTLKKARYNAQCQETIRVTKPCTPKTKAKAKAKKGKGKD
Method: (§1) The binding specificity and affinity of the humanised anti-MK antibodies to recombinant human MK (huMK) and murine MK (muMK) was assessed by ELISA. ELISA plates (Nunc Immuno MaxiSorp 96 well flat-bottom were coated with 100 uL of 2 ug/mL of either huMK or muMK in 2% BSA/PBS (overnight at room temperature). After washing, blocking (1 h at 37° C.), and washing again, the humanised anti-MK and chimeric antibodies described in Example 1 were analysed for binding to huMK or muMK at concentrations ranging between 3 μg/ml and 0.00004 μg/ml in 2% BSA/PBS (1 h at 37° C.). After washing, the binding of antibody was detected with goat anti-mouse IgG (Fab specific)-HRP conjugate (Sigma, Cat. No. A9917) and SigmaFast OPD substrate (Sigma, Cat. No. P9187). The reaction was stopped with 3 M HCl, absorbance read at 490 nm on a Dynex Technologies MRX TC II plate reader and the binding curves plotted. Binding affinity data for the humanised anti-MK antibodies to huMK and muMK are presented in Table 6 and Table 7 respectively, and in FIG. 3.

[3] = molecular target: T2, recombinant human midkine (huMK); assay: cell-based or functional assay
[4] = molecular target: T1, recombinant murine midkine (muMK); assay: ELISA, plate coated with muMK
Method: as §1

[5] = molecular target: T1, recombinant murine midkine (muMK); assay: ELISA by the methods of Example 2 (printed as KD)
Method: as §1
(§2) KD values for hIP14-H5L8, hIP14-H6L3 and hIP14-H6L8 was then compared with the KD values obtained for the corresponding murine IP14 precursor antibody and the chimeric antibody using the methods described in Example 2. As is apparent from Table 7, the humanised mIP14 antibodies designated hIP14-H5L8, hIP14-H6L3, and hIP14-H6L8 were each shown to have better binding affinity than the murine IP14 precursor antibody and the chimeric antibody for huMK and muMK. Based on this finding, these candidate antibodies were produced to 100 mg scale to enable further testing in functional assays to determine biological function.

[6] = molecular target: T2, recombinant human midkine (huMK); assay: ELISA by the methods of Example 2 (printed as KD)
Method: as §1, §2

B2: IP14-H6L8 (antibody, V domains shown)
VH: QVQLVQSGGGLVKPGHSLRLSCAASGQSFSSYWMNWVRQAPGKGLEWIGMIHPSDSETILNQKFKDKATLSVDIAKNSAYLQMNSLRAEDTAVYYCSSWSAKRGDFWGQGTLVTVSS
VL: DIVLTQSPATLSLSPGERATLSCRASESISNNLHWYQQKPHQAPRLLIYYASQSISGVPARFSGSGSGTDFTLTISSVEPEDFAVYYCQQSNSWPLTFGQGTKVEIKR
notes: also called hIP14-H6L8; Hv6 Lv8
% Inhibition of UMR106 cell migration, Assay 4 [3]: 44% | % Inhibition of UMR106 cell migration, Assay 5 [3]: 24% | % Inhibition of UMR106 cell migration, Assay 6 [3]: 48% | Mean % Inhibition of UMR106 cell migration [3]: 38.7% | Mean Cells/Field, Assay 4 (UMR106 migration, antibody 100 ug/mL, MK-17 20 µg/mL) [3]: 27 cells/field | Mean Cells/Field, Assay 5 (UMR106 migration, antibody 100 ug/mL, MK-17 20 µg/mL) [3]: 32 cells/field | Mean Cells/Field, Assay 6 (UMR106 migration, antibody 100 ug/mL, MK-17 20 µg/mL) [3]: 22 cells/field | EC50 [4]: 0.091 nM | Kd [5]: 0.091 nM | Kd [6]: 0.042 nM | EC50 [2]: 0.042 nM

B3: IP14-H6L7 (antibody, V domains shown)
VH: B2 VH
VL: B2 VL with T20N, T72N
notes: also called Hv6 Lv7
EC50 [4]: 0.051 nM | EC50 [2]: 0.068 nM

B4: IP14-H6L3 (antibody, V domains shown)
VH: B2 VH
VL: B2 VL with H41G, V58I, S67P, V78L, Q100G, V104L
notes: also called hIP14-H6L3; Hv6 Lv3
% Inhibition of UMR106 cell migration, Assay 4 [3]: 48% | % Inhibition of UMR106 cell migration, Assay 5 [3]: 40% | % Inhibition of UMR106 cell migration, Assay 6 [3]: 45% | Mean % Inhibition of UMR106 cell migration [3]: 44.3% | Mean Cells/Field, Assay 4 (UMR106 migration, antibody 100 ug/mL, MK-17 20 µg/mL) [3]: 25 cells/field | Mean Cells/Field, Assay 5 (UMR106 migration, antibody 100 ug/mL, MK-17 20 µg/mL) [3]: 25 cells/field | Mean Cells/Field, Assay 6 (UMR106 migration, antibody 100 ug/mL, MK-17 20 µg/mL) [3]: 23 cells/field | EC50 [4]: 0.048 nM | Kd [5]: 0.048 nM | Kd [6]: 0.07 nM | EC50 [2]: 0.07 nM

B5: IP14-H6L6 (antibody, V domains shown)
VH: B2 VH
VL: EIVLTQSPSTLSASVGDRVNITCRASESISNNLHWYQQKPHKAPKLLIYYASQSISGVPSRFSGSGSGTEFNLTISSVQPDDFATYYCQQSNSWPLTFGQGTKVEIKR
notes: also called Hv6 Lv6
EC50 [4]: 0.048 nM | EC50 [2]: 0.088 nM

B6: IP14-H5L8 (antibody, V domains shown)
VH: B2 VH with K13Q, H16G, K43Q, S71T, A75S, S78T
VL: B2 VL
notes: also called hIP14-H5L8; Hv5 Lv8
% Inhibition of UMR106 cell migration, Assay 4 [3]: 60% | % Inhibition of UMR106 cell migration, Assay 5 [3]: 31% | % Inhibition of UMR106 cell migration, Assay 6 [3]: 31% | Mean % Inhibition of UMR106 cell migration [3]: 40.7% | Mean Cells/Field, Assay 4 (UMR106 migration, antibody 100 ug/mL, MK-17 20 µg/mL) [3]: 19 cells/field | Mean Cells/Field, Assay 5 (UMR106 migration, antibody 100 ug/mL, MK-17 20 µg/mL) [3]: 29 cells/field | Mean Cells/Field, Assay 6 (UMR106 migration, antibody 100 ug/mL, MK-17 20 µg/mL) [3]: 29 cells/field | EC50 [4]: 0.05 nM | Kd [5]: 0.05 nM | Kd [6]: 0.06 nM | EC50 [2]: 0.06 nM

The next lines start with the values.

binding result [1]: binds | EC50 [2]: 5.7 nM
B1: IP14-H3L6 (antibody, V domains shown)
VH: QVQLVQSGAEVKKPGASVKVSCKASGQSFSSYWMNWVRQAPGQGLEWMGMIHPSDSETILNQKFKDKVTMTRDTSTSTVYMELSSLRSEDTAVYYCARWSAKRGDFWGQGTLVTVSS
VL: B5 VL
notes: also called Hv3 Lv6

binding result [1]: binds | EC50 [2]: 5.79 nM
B7: IP14-H3L3 (antibody, V domains shown)
VH: B1 VH
VL: B2 VL with H41G, V58I, S67P, V78L, Q100G, V104L
notes: also called Hv3 Lv3

% Inhibition of UMR106 cell migration, Assay 4 [3]: 6% | % Inhibition of UMR106 cell migration, Assay 5 [3]: 10% | % Inhibition of UMR106 cell migration, Assay 6 [3]: 38% | Mean % Inhibition of UMR106 cell migration [3]: 18% | Mean Cells/Field, Assay 4 (UMR106 migration, antibody 100 ug/mL, MK-17 20 µg/mL) [3]: 45 cells/field | Mean Cells/Field, Assay 5 (UMR106 migration, antibody 100 ug/mL, MK-17 20 µg/mL) [3]: 38 cells/field | Mean Cells/Field, Assay 6 (UMR106 migration, antibody 100 ug/mL, MK-17 20 µg/mL) [3]: 26 cells/field | Kd [5]: 0.166 nM | Kd [6]: 0.144 nM
B8: murine IP14 precursor antibody (antibody, V domains shown)
VH: QVQLQQPGAELVRPGHSVKLSCKASGQSFSSYWMNWVRQRPGQGLEWIGMIHPSDSETILNQKFKDKATLTVDISSNTAYMQLSSPTSEDSAVYFCSSWSAKRGDFWGQGTTLTVSS
VL: DIVLTQSPATLSVTPGDSVNLSCRASESISNNLHWYQQKSHESPRLLIKYASQSISGIPSRFSGSGSGTDFNLSVNSVETEDFGMYFCQQSNSWPLTFGAGTKLELKR
notes: Murine monoclonal antibody; also called mIP14; mAb IP14

EC50 [4]: 0.13 nM | Kd [5]: 0.13 nM | Kd [6]: 0.104 nM | EC50 [2]: 0.104 nM
B9: mouse-human chimeric IP14 antibody (antibody, V domains shown)
VH: B8 VH
VL: B8 VL
notes: also called chimeric antibody; Hv0 Lv0
